Earlier results as cited in publication PMC11658791.
Where two headings read alike, the source gives them in different places.

Assays:
[1] = target: FpvAI (Pseudomonas aeruginosa) (UniProt P48632)
[2] = target: Colicin M (Cma) (Escherichia coli) (UniProt P05820)
TonB (Escherichia coli) [3] = target: TonB (Escherichia coli) (UniProt P02929)
TonB (Escherichia coli) [4] = target: TonB (Escherichia coli) (UniProt P02929); assay: ITC

Sequence of UniProt P02929 (P02929 whole entry): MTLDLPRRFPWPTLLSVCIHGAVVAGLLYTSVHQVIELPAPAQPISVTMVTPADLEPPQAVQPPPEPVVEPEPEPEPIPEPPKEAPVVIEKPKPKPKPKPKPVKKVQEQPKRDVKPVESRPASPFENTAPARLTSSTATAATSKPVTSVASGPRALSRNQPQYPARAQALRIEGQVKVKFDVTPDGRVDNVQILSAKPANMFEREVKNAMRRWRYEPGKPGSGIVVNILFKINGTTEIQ
Sequence of UniProt P48632 (P48632 44-815): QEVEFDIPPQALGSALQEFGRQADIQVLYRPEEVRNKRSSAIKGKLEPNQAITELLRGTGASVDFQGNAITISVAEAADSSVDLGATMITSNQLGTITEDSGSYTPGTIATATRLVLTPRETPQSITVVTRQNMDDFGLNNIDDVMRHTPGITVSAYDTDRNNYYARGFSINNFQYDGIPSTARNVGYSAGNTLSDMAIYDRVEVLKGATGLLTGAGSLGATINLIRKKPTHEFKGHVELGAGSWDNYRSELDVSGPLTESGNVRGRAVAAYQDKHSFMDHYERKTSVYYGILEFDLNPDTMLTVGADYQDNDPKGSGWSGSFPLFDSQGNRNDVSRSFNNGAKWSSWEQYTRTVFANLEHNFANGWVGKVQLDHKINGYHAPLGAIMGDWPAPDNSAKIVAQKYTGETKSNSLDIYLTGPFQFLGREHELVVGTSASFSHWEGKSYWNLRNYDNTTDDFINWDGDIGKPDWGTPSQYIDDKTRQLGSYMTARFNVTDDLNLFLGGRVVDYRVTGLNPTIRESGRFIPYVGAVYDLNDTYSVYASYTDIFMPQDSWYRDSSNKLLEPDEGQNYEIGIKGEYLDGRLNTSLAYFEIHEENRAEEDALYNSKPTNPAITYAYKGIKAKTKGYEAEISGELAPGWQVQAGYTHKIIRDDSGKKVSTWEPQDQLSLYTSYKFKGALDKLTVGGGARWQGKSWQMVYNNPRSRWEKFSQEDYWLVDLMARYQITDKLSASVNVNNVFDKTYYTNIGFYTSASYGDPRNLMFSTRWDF
Sequence of UniProt P05820 (P05820 whole entry): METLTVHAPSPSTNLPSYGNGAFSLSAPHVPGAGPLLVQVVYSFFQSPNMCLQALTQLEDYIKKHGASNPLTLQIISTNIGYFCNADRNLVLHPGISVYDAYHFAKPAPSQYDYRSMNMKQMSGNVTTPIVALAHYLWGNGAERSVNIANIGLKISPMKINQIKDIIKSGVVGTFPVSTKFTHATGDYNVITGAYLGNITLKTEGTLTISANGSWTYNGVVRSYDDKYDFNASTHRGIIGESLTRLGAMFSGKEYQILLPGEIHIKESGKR

Row | Substance | Kd [1] | Kd [2] | Kd (TonB (Escherichia coli) [3]) | Kd (TonB (Escherichia coli) [4])
1 | Pyocin S2 (pyoS2NTD) N-terminal domain (from UniProt Q06584) | 0.24 nM | – | – | –
2 | FhuA (from UniProt P06971) | – | 3.5 nM | 20 nM | 200 nM
